From US20230146939A1, “TREATMENT FOR HUMAN CORONAVIRUS INFECTION” (THE ADMINISTRATORS OF THE TULANE EDUCATIONAL FUND, priority 2020, published 2023)

Target: α5β1 integrin, P08648
Assay: competition ELISA, α5β1-coated plate, inhibition of trimeric spike binding

Chain of α5β1 integrin, P08648 (P08648 42-995, chain 1 of 2): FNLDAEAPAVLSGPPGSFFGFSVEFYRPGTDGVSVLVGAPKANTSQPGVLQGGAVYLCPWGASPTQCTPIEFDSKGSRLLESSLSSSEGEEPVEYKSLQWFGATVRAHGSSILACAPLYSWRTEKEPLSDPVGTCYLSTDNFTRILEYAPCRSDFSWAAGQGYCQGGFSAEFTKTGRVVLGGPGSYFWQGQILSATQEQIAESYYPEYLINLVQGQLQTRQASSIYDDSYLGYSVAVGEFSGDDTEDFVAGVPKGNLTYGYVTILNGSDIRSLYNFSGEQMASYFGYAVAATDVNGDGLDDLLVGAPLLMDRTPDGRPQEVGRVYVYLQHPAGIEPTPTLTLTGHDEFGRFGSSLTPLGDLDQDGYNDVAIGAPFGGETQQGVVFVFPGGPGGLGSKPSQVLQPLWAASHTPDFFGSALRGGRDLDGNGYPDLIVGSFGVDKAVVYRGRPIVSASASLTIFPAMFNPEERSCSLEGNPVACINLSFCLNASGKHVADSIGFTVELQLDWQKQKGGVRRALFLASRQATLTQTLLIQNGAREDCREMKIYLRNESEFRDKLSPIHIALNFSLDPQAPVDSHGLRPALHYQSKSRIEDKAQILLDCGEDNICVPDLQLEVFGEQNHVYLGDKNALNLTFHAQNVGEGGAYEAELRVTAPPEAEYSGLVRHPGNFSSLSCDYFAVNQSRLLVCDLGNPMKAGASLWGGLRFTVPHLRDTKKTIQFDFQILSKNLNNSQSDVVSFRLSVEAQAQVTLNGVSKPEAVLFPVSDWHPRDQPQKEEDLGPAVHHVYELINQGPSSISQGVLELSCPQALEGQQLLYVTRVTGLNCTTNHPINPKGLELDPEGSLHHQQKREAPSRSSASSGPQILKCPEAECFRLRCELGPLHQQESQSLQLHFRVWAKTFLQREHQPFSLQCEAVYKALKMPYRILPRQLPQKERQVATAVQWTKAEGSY
Chain of α5β1 integrin, P08648 (P05556 21-728, chain 2 of 2, further chain): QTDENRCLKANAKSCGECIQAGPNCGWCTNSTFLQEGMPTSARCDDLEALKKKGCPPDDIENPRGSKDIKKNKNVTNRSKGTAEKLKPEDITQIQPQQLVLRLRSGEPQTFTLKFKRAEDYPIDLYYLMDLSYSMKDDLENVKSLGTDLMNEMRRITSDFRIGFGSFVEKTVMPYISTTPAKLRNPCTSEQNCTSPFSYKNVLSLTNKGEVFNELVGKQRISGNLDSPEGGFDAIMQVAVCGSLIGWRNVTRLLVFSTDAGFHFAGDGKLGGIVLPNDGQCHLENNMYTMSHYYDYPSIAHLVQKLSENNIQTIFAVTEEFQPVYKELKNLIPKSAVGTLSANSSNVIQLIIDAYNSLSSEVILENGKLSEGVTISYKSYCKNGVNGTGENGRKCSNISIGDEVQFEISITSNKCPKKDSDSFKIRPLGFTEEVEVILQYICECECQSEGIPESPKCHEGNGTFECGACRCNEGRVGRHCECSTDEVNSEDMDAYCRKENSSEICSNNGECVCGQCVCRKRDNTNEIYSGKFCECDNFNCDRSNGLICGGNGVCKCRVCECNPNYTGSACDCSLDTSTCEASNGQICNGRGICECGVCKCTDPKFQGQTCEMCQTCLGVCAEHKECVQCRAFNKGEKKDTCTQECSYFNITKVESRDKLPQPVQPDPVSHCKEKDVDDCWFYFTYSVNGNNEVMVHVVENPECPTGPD

How did the most effective dose tested turn out when PHSCN (modifications not checked) [ATN-161] was run?
Its most effective dose tested is 100 nM.
